The source of these data is IntAct's records for PubMed 16799563.

To fix the notation:
B1: Mediator of RNA polymerase II transcription subunit 15 (Homo sapiens), Q96RN5 (parent)
chain: MDVSGQETDWRSTAFRQKLVSQIEDAMRKAGVAHSKSSKDMESHVFLKAKTRDEYLSLVARLIIHFRDIHNKKSQASVSDPMNALQSLTGGPAAGAAGIGMPPRGPGQSLGGMGSLGAMGQPMSLSGQPPPGTSGMAPHSMAVVSTATPQTQLQLQQVALQQQQQQQQFQQQQQAALQQQQQQQQQQQFQAQQSAMQQQFQAVVQQQQQLQQQQQQQQHLIKLHHQNQQQIQQQQQQLQRIAQLQLQQQQQQQQQQQQQQQQALQAQPPIQQPPMQQPQPPPSQALPQQLQQMHHTQHHQPPPQPQQPPVAQNQPSQLPPQSQTQPLVSQAQALPGQMLYTQPPLKFVRAPMVVQQPPVQPQVQQQQTAVQTAQAAQMVAPGVQMITEALAQGGMHIRARFPPTTAVSAIPSSSIPLGRQPMAQVSQSSLPMLSSPSPGQQVQTPQSMPPPPQPSPQPGQPSSQPNSNVSSGPAPSPSSFLPSPSPQPSQSPVTARTPQNFSVPSPGPLNTPVNPSSVMSPAGSSQAEEQQYLDKLKQLSKYIEPLRRMINKIDKNEDRKKDLSKMKSLLDILTDPSKRCPLKTLQKCEIALEKLKNDMAVPTPPPPPVPPTKQQYLCQPLLDAVLANIRSPVFNHSLYRTFVPAMTAIHGPPITAPVVCTRKRRLEDDERQSIPSVLQGEVARLDPKFLVNLDPSHCSNNGTVHLICKLDDKDLPSVPPLELSVPADYPAQSPLWIDRQWQYDANPFLQSVHRCMTSRLLQLPDKHSVTALLNTWAQSVHQACLSAA
partner: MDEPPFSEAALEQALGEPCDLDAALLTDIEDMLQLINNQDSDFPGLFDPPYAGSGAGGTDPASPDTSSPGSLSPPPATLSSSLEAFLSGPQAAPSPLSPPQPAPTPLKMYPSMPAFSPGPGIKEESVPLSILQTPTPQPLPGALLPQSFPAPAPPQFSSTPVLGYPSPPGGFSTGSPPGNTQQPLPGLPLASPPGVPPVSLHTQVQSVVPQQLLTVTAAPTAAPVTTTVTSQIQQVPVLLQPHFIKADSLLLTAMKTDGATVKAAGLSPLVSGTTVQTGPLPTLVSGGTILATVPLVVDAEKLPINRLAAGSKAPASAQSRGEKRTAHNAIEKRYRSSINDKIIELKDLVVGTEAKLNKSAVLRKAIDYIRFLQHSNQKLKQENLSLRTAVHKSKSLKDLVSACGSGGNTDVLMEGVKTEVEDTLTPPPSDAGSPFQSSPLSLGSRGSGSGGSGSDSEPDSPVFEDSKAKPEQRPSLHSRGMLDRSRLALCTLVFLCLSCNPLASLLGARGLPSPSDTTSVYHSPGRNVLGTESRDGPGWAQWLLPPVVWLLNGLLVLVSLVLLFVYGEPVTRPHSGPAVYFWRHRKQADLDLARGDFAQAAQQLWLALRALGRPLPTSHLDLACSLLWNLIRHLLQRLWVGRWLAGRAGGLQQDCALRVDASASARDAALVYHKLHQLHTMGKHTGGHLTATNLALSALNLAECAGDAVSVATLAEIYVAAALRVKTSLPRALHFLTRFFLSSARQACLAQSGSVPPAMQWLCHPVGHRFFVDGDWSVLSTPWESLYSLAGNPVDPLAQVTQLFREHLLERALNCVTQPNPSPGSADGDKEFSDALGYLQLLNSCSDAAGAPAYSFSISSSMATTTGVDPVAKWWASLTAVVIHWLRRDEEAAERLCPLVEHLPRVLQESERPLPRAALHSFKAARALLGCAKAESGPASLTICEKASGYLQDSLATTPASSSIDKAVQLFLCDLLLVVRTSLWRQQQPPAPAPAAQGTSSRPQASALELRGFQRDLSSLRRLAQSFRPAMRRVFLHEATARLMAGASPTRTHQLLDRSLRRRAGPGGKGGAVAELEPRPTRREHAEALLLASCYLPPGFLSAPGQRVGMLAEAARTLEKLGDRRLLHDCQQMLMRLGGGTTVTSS

The assay covers variants of B1. As to conditions: with SREBF1, P36956-1.
As for L58D, the “effect of a mutation on the interaction” value is “disrupting interaction strength”. Turning to A60D, the “effect of a mutation on the interaction” value is listed as “disrupting interaction strength”. To E42A belongs “disrupting interaction strength”.
